{"source": "paper PMC9834240", "about": "“Senescent cells perturb intestinal stem cell differentiation through Ptk7 induced noncanonical Wnt and YAP signaling” (Nature Communications, 2023)", "molecules": {"B1": {"name": "Wnt11: noncanonical Wnt ligand; recombinant protein, R&D Systems 6179-WN-010 (protein, UniProt O96014 25-354, looked up)", "Protein Wnt-11": "IKWLALSKTPSALALNQTQHCKQLEGLVSAQVQLCRSNLELMHTVVHAAREVMKACRRAFADMRWNCSSIELAPNYLLDLERGTRESAFVYALSAAAISHAIARACTSGDLPGCSCGPVPGEPPGPGNRWGGCADNLSYGLLMGAKFSDAPMKVKKTGSQANKLMRLHNSEVGRQALRASLEMKCKCHGVSGSCSIRTCWKGLQELQDVAADLKTRYLSATKVVHRPMGTRKHLVPKDLDIRPVKDSELVYLQSSPDFCMKNEKVGSHGTQDRQCNKTSNGSDSCDLMCCGRGYNPYTDRVVERCHCKYHWCCYVTCRRCERTVERYVCK"}}, "format_in_all_cases": "cell-based", "key": {"[1]": {"system": "YAP in mouse intestinal organoids", "assay": "whole mount immunostaining for YAP nuclear localization", "method": "For whole mount staining, freshly passaged crypts were mixed with Matrigel (Corning, #356231) and mounted to µ-Slide 8 well chamber slides (ibidi, #80826). Media were changed every 2–3 d. 5 days later, organoids in the chamber slides were then fixed in 4% formaldehyde in PBS for 30 min, permeabilized with 0.5% Triton X-100 for 1 h, and incubated in blocking solution (3% normal donkey serum (Sigma-Aldrich, #566460) and 5% BSA (Sigma-Aldrich, #A7979) in 0.1% Triton X-100 + PBS) for 1 h. Primary and secondary antibodies were diluted in blocking solution and added to fixed organoids. Organoids were incubated with primary antibodies overnight at 4 °C and with secondary antibodies for 2 h. ProLong Diamond Antifade Mountant (Invitrogen, # P36970) was added. Images were acquired with a Yokogawa CSU-W1/Zeiss 3i Marianas spinning disk confocal microscopy system. For each organoid, Z-planes up to 100 μm with 1 or 1.5 μm z-steps were acquired to quantify the number of cell types."}, "[2]": {"system": "mouse intestinal organoids", "assay": "cystic organoid percentage, organoids in conditioned media (SCM/QCM) with or without inhibitors or antibodies", "details": "SCM-exposed organoids", "method": "Twenty-four hours before collecting conditioned media (CM), MEFs were washed with serum-free DMEM twice, and serum-free DMEM was added. After 24 h in serum-free DMEM, this CM was collected, filtered using Steriflip filters (Millipore, #SE1M179M6) to remove cell debris, and concentrated using centrifugal filter units (Amicon ultra-15 centricon; Millipore, # UFC900324). […] CM was filtered and dialyzed for 24–48 h to remove the inhibitors before concentration.\n(§1) The jejunum part of the small intestine was removed, flushed with PBS, opened longitudinally, then cut into 0.5 cm pieces. The collected tissues were washed with ice cold PBS multiple times by vortexing and incubated in PBS containing 2.5 mM EDTA for 5 min at 37 °C. After gentle shaking and aspiration, tissues were incubated in PBS containing 5 mM EDTA for 7 min at 37 °C. Tissues were then washed with PBS to remove EDTA and vigorously shaken to release crypts. The released crypts were passed through 70 μm strainers, washed with PBS, and pelleted by centrifugation at 200 × g.\n(§2) 3-4 biological replicates of organoids from different mice were used per condition. Organoids were cultured in the indicated media, inhibitors, antibodies and/or recombinant proteins for 5 d and fixed in 4% formaldehyde in PBS. Organoids were imaged with a 4× Plan Fluor objective (NA: 0.13, Nikon) on a Nikon Ti-E inverted microscope equipped with a Neo scMOS camera (Andor, Oxford Instruments), a linear encoded automated stage (Applied Scientific Instrumentation), all run by NIS Elements software (Nikon). Organoids were imaged in brightfield and images covering the whole well were stitched and focused into one image projection with an extended depth of focus module (EDF; Nikon). One hundred to 200 organoids per replicate per condition were counted and used for quantification. The number of budding organoids in each condition was normalized by the number of budding organoids in untreated or DMSO treated controls to calculate cystic organoid percentage:1 Cysticorganoidpercentage=100×1−Numberofbuddingorganoidsfromexperiment/Numberofbuddingorganoidsfromcontrol"}, "[3]": {"system": "mouse intestinal organoids", "assay": "inhibition of Wnt5a-induced cystic organoids", "details": "Wnt5a-treated organoids", "method": "as §1, with “g. Resuspended crypts were mixed with Matrigel (Corning, #356231; Lot#8218007) and pipetted into culture plates. After mixture of crypts and Matrigel solidified, IntestiCult Organoid Growth Medium (Stem Cell Technologies, #06005; Lots #1000021927, #1000034230, #1000037372) was added. Seven days after seeding, organoids were resuspended in dissociation buffer (Gentle Cell Dissociation Reagent; Stem Cell Technologies, #07174), dissociated by pipetting, and seeded for experiments.” for “g.”\nas §2"}, "[4]": {"system": "cytosolic Ca2+ in mouse intestinal organoids", "assay": "live Ca2+ imaging of mouse intestinal organoids (GCaMP6f/tdTomato: baselined area under curve, peak number, height, width)", "details": "live organoids expressing GCaMP6f", "method": "Z stacks were acquired every 10 s.\nZ-stack images were converted to mean intensity projections and, where required; background was subtracted using a rolling ball algorithm. Segmentation was conducted on a max-projection over-time of the GCaMP6f channel using Cellpose’s pre-trained “Cytoplasm” classifier. Mean intensity traces were measured in each ROI over the time course in both the GCaMP6f and TdTomato channels using scikit-image[138]. Ca^2+ oscillation patterns were calculated in an unsupervised, automated manner using MATLAB. Mean intensity traces were smoothed using a Savitzky-Golay filter and peaks were identified using the “findpeaks” algorithm from the MATLAB Signal Processing Toolbox. Graphs for GCaMP6f/tdTomato fluorescence ratio, peak numbers, peak height, peak width and baselined area under the curve were generated using Python matplotlib and seaborn packages. Statistical analysis was performed using Python SciPy and scikit-post-hoc packages."}, "[5]": {"system": "β-Catenin-dependent Wnt signaling (HEK293-TB cells)", "assay": "TOPbrite dual-luciferase Wnt reporter assay", "details": "SF.3e", "method": "Generation of HEK293 cells stably expressing a TOPbrite firefly luciferase Wnt reporter and pRL-SV40 Renilla luciferase (HEK293-TB) was previously described. HEK293-TB cells were maintained in DMEM/F12 (50:50), supplemented with 10% FBS, 2 mM Glutamax (Gibco, #35050-061) and 40 μg/ml hygromycin (Cellgro, #30-240-CR). For the luciferase reporter assay, HEK293-TB cells were seeded in 96-well plates (Falcon, #353377). The next day, cells were treated with indicated Wnt ligands (50 ng/ml) or CM diluted in culture media. After 24 h, the firefly and Renilla luciferase activity was measured using Dual-Glo Luciferase Assay system (Promega, #E2940) on a Perkin Elmer EnVision multilabel reader. The ratios of firefly luminescence to Renilla luminescence were calculated and normalized to control samples that were not treated."}, "[6]": {"system": "mouse intestinal organoids", "assay": "cystic organoid percentage, organoids treated with recombinant Wnt ligands (Wnt3a, Wnt5a, Wnt11)", "details": "for percentage of cystic organoids: Fig. 4e, individual mice, n = 3; for induction of cystic organoids: recombinant Wnt ligand added to crypt cultures; for cystic organoid percentage: SF.3p, Untreated = 0", "method": "as §1, with “g. Resuspended crypts were mixed with Matrigel (Corning, #356231; Lot#8218007) and pipetted into culture plates. After mixture of crypts and Matrigel solidified, IntestiCult Organoid Growth Medium (Stem Cell Technologies, #06005; Lots #1000021927, #1000034230, #1000037372) was added. Seven days after seeding, organoids were resuspended in dissociation buffer (Gentle Cell Dissociation Reagent; Stem Cell Technologies, #07174), dissociated by pipetting, and seeded for experiments.” for “g.”\nas §2"}}, "note": "Values joined by “and” are separate entries in the source; they are usually repeats but may differ in a detail not shown here. Identical values can stand only once.", "data": [{"molecule": "CN([C@@H](Cc1ccc(OS(=O)(=O)c2cccc3cnccc23)cc1)C(=O)N1CCN(c2ccccc2)CC1)S(=O)(=O)c1cccc2cnccc12", "note": "[KN-62]", "values": [{"measurement": "effect on nuclear localization of YAP", "setting": "[1]", "result": "reversed SCM- or Wnt5a-induced nuclear translocation of YAP"}, {"measurement": "effect on cystic organoid phenotype", "setting": "[2]", "result": "suppressed the cystic organoid phenotype"}]}, {"molecule": "O=C(O)c1ccc2c3c1cccc3c(=O)n1c3ccccc3nc21", "note": "[STO-609]", "values": [{"measurement": "effect on nuclear localization of YAP", "setting": "[1]", "result": "reversed SCM- or Wnt5a-induced nuclear translocation of YAP"}, {"measurement": "effect on cystic organoid phenotype", "setting": "[2]", "result": "suppressed the cystic organoid phenotype"}]}, {"molecule": "CN1CCN(CCCN2c3ccccc3Sc3ccc(C(F)(F)F)cc32)CC1", "note": "[TFP, Trifluoperazine]", "values": [{"measurement": "effect on nuclear localization of YAP", "setting": "[1]", "result": "reversed SCM- or Wnt5a-induced nuclear translocation of YAP"}, {"measurement": "effect on cystic organoid phenotype", "setting": "[2]", "result": "reduced the percentage of cystic organoids"}, {"measurement": "effect on Wnt5a-induced cystic organoid phenotype", "setting": "[3]", "result": "reduced the percentage of cystic organoids"}]}, {"molecule": "Wnt3a [reference compound]", "values": [{"measurement": "effect on cytosolic Ca2+ levels and oscillations", "setting": "[4]", "result": "decreased cytosolic Ca^2+ levels"}, {"measurement": "TOPbrite dual-luciferase Wnt reporter activity", "setting": "[5]; replicate 1", "result": 83.0786}, {"measurement": "TOPbrite dual-luciferase Wnt reporter activity", "setting": "[5]; replicate 2", "result": 67.4901}, {"measurement": "TOPbrite dual-luciferase Wnt reporter activity", "setting": "[5]; replicate 3", "result": 77.6835}, {"measurement": "TOPbrite dual-luciferase Wnt reporter activity", "setting": "[5]; replicate 4", "result": 73.6039}, {"measurement": "percentage of cystic organoids", "setting": "[6]; Wnt3a 25 ng/ml", "result": "7.495% and 3.142% and 6.766%"}, {"measurement": "percentage of cystic organoids", "setting": "[6]; Wnt3a 50 ng/ml", "result": "18.7879% and 6.422% and 6.8556%"}, {"measurement": "percentage of cystic organoids", "setting": "[6]; Wnt3a 100 ng/ml", "result": "13.092% and 2.902% and 16.5461%"}, {"measurement": "percentage of cystic organoids", "setting": "[6]; Wnt3a 250 ng/ml", "result": "21.7379% and 11.3578% and 13.1232%"}, {"measurement": "percentage of cystic organoids", "setting": "[6]; Wnt3a 500 ng/ml", "result": "37.371% and 19.4444% and 31.0445%"}, {"measurement": "induction of cystic organoids", "setting": "[6]", "result": "dose-dependently increased organoids with cystic morphology"}]}, {"molecule": "B1", "values": [{"measurement": "TOPbrite dual-luciferase Wnt reporter activity", "setting": "[5]; replicate 1", "result": 0.9689}, {"measurement": "TOPbrite dual-luciferase Wnt reporter activity", "setting": "[5]; replicate 2", "result": 1.428}, {"measurement": "TOPbrite dual-luciferase Wnt reporter activity", "setting": "[5]; replicate 3", "result": 1.229}, {"measurement": "TOPbrite dual-luciferase Wnt reporter activity", "setting": "[5]; replicate 4", "result": 1.621}, {"measurement": "cystic organoid percentage", "setting": "[6]; 25ng/ml, replicate 1", "result": 1.8358}, {"measurement": "cystic organoid percentage", "setting": "[6]; 25ng/ml, replicate 2", "result": -0.2717}, {"measurement": "cystic organoid percentage", "setting": "[6]; 25ng/ml, replicate 3", "result": -1.279}, {"measurement": "cystic organoid percentage", "setting": "[6]; 50ng/ml, replicate 1", "result": -0.06739}, {"measurement": "cystic organoid percentage", "setting": "[6]; 50ng/ml, replicate 2", "result": -5.163}, {"measurement": "cystic organoid percentage", "setting": "[6]; 50ng/ml, replicate 3", "result": 1.176}, {"measurement": "cystic organoid percentage", "setting": "[6]; 100ng/ml, replicate 1", "result": -0.2558}, {"measurement": "cystic organoid percentage", "setting": "[6]; 100ng/ml, replicate 2", "result": -1.25}, {"measurement": "cystic organoid percentage", "setting": "[6]; 100ng/ml, replicate 3", "result": 2.262}, {"measurement": "cystic organoid percentage", "setting": "[6]; 250 ng/ml, replicate 1", "result": 2.331}, {"measurement": "cystic organoid percentage", "setting": "[6]; 250 ng/ml, replicate 2", "result": -7.143}, {"measurement": "cystic organoid percentage", "setting": "[6]; 250 ng/ml, replicate 3", "result": 1.176}, {"measurement": "cystic organoid percentage", "setting": "[6]; 500ng/ml, replicate 1", "result": 2.331}, {"measurement": "cystic organoid percentage", "setting": "[6]; 500ng/ml, replicate 2", "result": -1.6129}, {"measurement": "cystic organoid percentage", "setting": "[6]; 500ng/ml, replicate 3", "result": 1.42}, {"measurement": "cystic organoid percentage", "setting": "[6]; 1ug/ml, replicate 1", "result": 2.516}, {"measurement": "cystic organoid percentage", "setting": "[6]; 1ug/ml, replicate 3", "result": -0.8403}, {"measurement": "induction of cystic organoids", "setting": "[6]", "result": "failed to induced cystic organoids"}]}]}
